This is an account of results in US20210032299A1.

Starred links: 1 amine or outer side, 2 acyl side, 3 side chain; linkers in the order of their positions; H or OH if unused. Non-standard residues stand in square brackets, D forms with d. Groups on a side chain read outwards from the residue. No end group written: not given here. *: point of attachment. C20 diacid = O=C(O)CCCCCCCCCCCCCCCCCCC(=O)*; αMePhe(2-F) = C[C@](N)(Cc1ccccc1F)C(=O)O; γGlu = O=C(O)[C@H](CCC(=O)[*:2])N[*:1]; αMeF = C[C@](N)(Cc1ccccc1)C(=O)O; 4Pal = N[C@@H](Cc1ccncc1)C(=O)O; αMeL = CC(C)C[C@](C)(N)C(=O)O; AEEA = NCCOCCOCC(=O)O; Aib = CC(C)(N)C(=O)O

B1: Example 98 (peptide)
peptide: Y[Aib]EGT[αMePhe(2-F)]ISDYSIALDKIHQ[Aib]EFVNYK([AEEA-AEEA-γGlu-C20 diacid])LAGGPSSGAPPPS-NH2
modifications: N-terminus assumed
SMILES: CC[C@H](C)[C@H](NC(=O)[C@H](CO)NC(=O)[C@H](Cc1ccc(O)cc1)NC(=O)[C@H](CC(=O)O)NC(=O)[C@H](CO)NC(=O)[C@@H](NC(=O)[C@](C)(Cc1ccccc1F)NC(=O)[C@@H](NC(=O)CNC(=O)[C@H](CCC(=O)O)NC(=O)C(C)(C)NC(=O)[C@@H](N)Cc1ccc(O)cc1)[C@@H](C)O)[C@@H](C)CC)C(=O)N[C@@H](C)C(=O)N[C@@H](CC(C)C)C(=O)N[C@@H](CC(=O)O)C(=O)N[C@@H](CCCCN)C(=O)N[C@H](C(=O)N[C@@H](Cc1c[nH]cn1)C(=O)N[C@@H](CCC(N)=O)C(=O)NC(C)(C)C(=O)N[C@@H](CCC(=O)O)C(=O)N[C@@H](Cc1ccccc1)C(=O)N[C@H](C(=O)N[C@@H](CC(N)=O)C(=O)N[C@@H](Cc1ccc(O)cc1)C(=O)N[C@@H](CCCCNC(=O)COCCOCCNC(=O)COCCOCCNC(=O)CC[C@H](NC(=O)CCCCCCCCCCCCCCCCCCC(=O)O)C(=O)O)C(=O)N[C@@H](CC(C)C)C(=O)N[C@@H](C)C(=O)NCC(=O)NCC(=O)N1CCC[C@H]1C(=O)N[C@@H](CO)C(=O)N[C@@H](CO)C(=O)NCC(=O)N[C@@H](C)C(=O)N1CCC[C@H]1C(=O)N1CCC[C@H]1C(=O)N1CCC[C@H]1C(=O)N[C@@H](CO)C(N)=O)C(C)C)[C@@H](C)CC
B2: Example 97 (peptide)
peptide: Y[Aib]EGT[αMeF]ISDYSIALDKIHQ[Aib]EFVNYK([AEEA-AEEA-γGlu-C20 diacid])LAGGPSSGAPPPS-NH2
modifications: N-terminus assumed
SMILES: CC[C@H](C)[C@H](NC(=O)[C@H](CO)NC(=O)[C@H](Cc1ccc(O)cc1)NC(=O)[C@H](CC(=O)O)NC(=O)[C@H](CO)NC(=O)[C@@H](NC(=O)[C@](C)(Cc1ccccc1)NC(=O)[C@@H](NC(=O)CNC(=O)[C@H](CCC(=O)O)NC(=O)C(C)(C)NC(=O)[C@@H](N)Cc1ccc(O)cc1)[C@@H](C)O)[C@@H](C)CC)C(=O)N[C@@H](C)C(=O)N[C@@H](CC(C)C)C(=O)N[C@@H](CC(=O)O)C(=O)N[C@@H](CCCCN)C(=O)N[C@H](C(=O)N[C@@H](Cc1c[nH]cn1)C(=O)N[C@@H](CCC(N)=O)C(=O)NC(C)(C)C(=O)N[C@@H](CCC(=O)O)C(=O)N[C@@H](Cc1ccccc1)C(=O)N[C@H](C(=O)N[C@@H](CC(N)=O)C(=O)N[C@@H](Cc1ccc(O)cc1)C(=O)N[C@@H](CCCCNC(=O)COCCOCCNC(=O)COCCOCCNC(=O)CC[C@H](NC(=O)CCCCCCCCCCCCCCCCCCC(=O)O)C(=O)O)C(=O)N[C@@H](CC(C)C)C(=O)N[C@@H](C)C(=O)NCC(=O)NCC(=O)N1CCC[C@H]1C(=O)N[C@@H](CO)C(=O)N[C@@H](CO)C(=O)NCC(=O)N[C@@H](C)C(=O)N1CCC[C@H]1C(=O)N1CCC[C@H]1C(=O)N1CCC[C@H]1C(=O)N[C@@H](CO)C(N)=O)C(C)C)[C@@H](C)CC
B3: Example 119 (peptide)
peptide: H-Y[Aib]EGT[αMePhe(2-F)]ISDYSILLDKIHQ[Aib]DFVE[4Pal]K([AEEA-AEEA-γGlu-C20 diacid])LEGGPSSGAPPPS-NH2
SMILES: CC[C@H](C)[C@H](NC(=O)[C@H](CO)NC(=O)[C@H](Cc1ccc(O)cc1)NC(=O)[C@H](CC(=O)O)NC(=O)[C@H](CO)NC(=O)[C@@H](NC(=O)[C@](C)(Cc1ccccc1F)NC(=O)[C@@H](NC(=O)CNC(=O)[C@H](CCC(=O)O)NC(=O)C(C)(C)NC(=O)[C@@H](N)Cc1ccc(O)cc1)[C@@H](C)O)[C@@H](C)CC)C(=O)N[C@@H](CC(C)C)C(=O)N[C@@H](CC(C)C)C(=O)N[C@@H](CC(=O)O)C(=O)N[C@@H](CCCCN)C(=O)N[C@H](C(=O)N[C@@H](Cc1c[nH]cn1)C(=O)N[C@@H](CCC(N)=O)C(=O)NC(C)(C)C(=O)N[C@@H](CC(=O)O)C(=O)N[C@@H](Cc1ccccc1)C(=O)N[C@H](C(=O)N[C@@H](CCC(=O)O)C(=O)N[C@@H](Cc1ccncc1)C(=O)N[C@@H](CCCCNC(=O)COCCOCCNC(=O)COCCOCCNC(=O)CC[C@H](NC(=O)CCCCCCCCCCCCCCCCCCC(=O)O)C(=O)O)C(=O)N[C@@H](CC(C)C)C(=O)N[C@@H](CCC(=O)O)C(=O)NCC(=O)NCC(=O)N1CCC[C@H]1C(=O)N[C@@H](CO)C(=O)N[C@@H](CO)C(=O)NCC(=O)N[C@@H](C)C(=O)N1CCC[C@H]1C(=O)N1CCC[C@H]1C(=O)N1CCC[C@H]1C(=O)N[C@@H](CO)C(N)=O)C(C)C)[C@@H](C)CC
B4: Example 95 (peptide)
peptide: Y[Aib]EGT[αMePhe(2-F)]ISDYSIALDKIHQ[Aib]EFVNYK([AEEA-AEEA-γGlu-C20 diacid])LEGGPSSGAPPPS-NH2
modifications: N-terminus assumed
SMILES: CC[C@H](C)[C@H](NC(=O)[C@H](CO)NC(=O)[C@H](Cc1ccc(O)cc1)NC(=O)[C@H](CC(=O)O)NC(=O)[C@H](CO)NC(=O)[C@@H](NC(=O)[C@](C)(Cc1ccccc1F)NC(=O)[C@@H](NC(=O)CNC(=O)[C@H](CCC(=O)O)NC(=O)C(C)(C)NC(=O)[C@@H](N)Cc1ccc(O)cc1)[C@@H](C)O)[C@@H](C)CC)C(=O)N[C@@H](C)C(=O)N[C@@H](CC(C)C)C(=O)N[C@@H](CC(=O)O)C(=O)N[C@@H](CCCCN)C(=O)N[C@H](C(=O)N[C@@H](Cc1c[nH]cn1)C(=O)N[C@@H](CCC(N)=O)C(=O)NC(C)(C)C(=O)N[C@@H](CCC(=O)O)C(=O)N[C@@H](Cc1ccccc1)C(=O)N[C@H](C(=O)N[C@@H](CC(N)=O)C(=O)N[C@@H](Cc1ccc(O)cc1)C(=O)N[C@@H](CCCCNC(=O)COCCOCCNC(=O)COCCOCCNC(=O)CC[C@H](NC(=O)CCCCCCCCCCCCCCCCCCC(=O)O)C(=O)O)C(=O)N[C@@H](CC(C)C)C(=O)N[C@@H](CCC(=O)O)C(=O)NCC(=O)NCC(=O)N1CCC[C@H]1C(=O)N[C@@H](CO)C(=O)N[C@@H](CO)C(=O)NCC(=O)N[C@@H](C)C(=O)N1CCC[C@H]1C(=O)N1CCC[C@H]1C(=O)N1CCC[C@H]1C(=O)N[C@@H](CO)C(N)=O)C(C)C)[C@@H](C)CC
B5: Example 117 (peptide)
peptide: Y[Aib]EGTFISDYSI[αMeL]LDKIHQ[Aib]DFVEYK([AEEA-AEEA-γGlu-C20 diacid])LEAGPSSGAPPPS-NH2
modifications: N-terminus assumed
SMILES: CC[C@H](C)[C@H](NC(=O)[C@H](CCCCN)NC(=O)[C@H](CC(=O)O)NC(=O)[C@H](CC(C)C)NC(=O)[C@](C)(CC(C)C)NC(=O)[C@@H](NC(=O)[C@H](CO)NC(=O)[C@H](Cc1ccc(O)cc1)NC(=O)[C@H](CC(=O)O)NC(=O)[C@H](CO)NC(=O)[C@@H](NC(=O)[C@H](Cc1ccccc1)NC(=O)[C@@H](NC(=O)CNC(=O)[C@H](CCC(=O)O)NC(=O)C(C)(C)NC(=O)[C@@H](N)Cc1ccc(O)cc1)[C@@H](C)O)[C@@H](C)CC)[C@@H](C)CC)C(=O)N[C@@H](Cc1c[nH]cn1)C(=O)N[C@@H](CCC(N)=O)C(=O)NC(C)(C)C(=O)N[C@@H](CC(=O)O)C(=O)N[C@@H](Cc1ccccc1)C(=O)N[C@H](C(=O)N[C@@H](CCC(=O)O)C(=O)N[C@@H](Cc1ccc(O)cc1)C(=O)N[C@@H](CCCCNC(=O)COCCOCCNC(=O)COCCOCCNC(=O)CC[C@H](NC(=O)CCCCCCCCCCCCCCCCCCC(=O)O)C(=O)O)C(=O)N[C@@H](CC(C)C)C(=O)N[C@@H](CCC(=O)O)C(=O)N[C@@H](C)C(=O)NCC(=O)N1CCC[C@H]1C(=O)N[C@@H](CO)C(=O)N[C@@H](CO)C(=O)NCC(=O)N[C@@H](C)C(=O)N1CCC[C@H]1C(=O)N1CCC[C@H]1C(=O)N1CCC[C@H]1C(=O)N[C@@H](CO)C(N)=O)C(C)C

The first assay deals with human glucagon receptor (human), P47871. As to the kind of experiment: SPA, displacement of [125I]-Gcg from hGcgR membranes, 0.1% bacitracin.
human glucagon receptor (human), P47871, sequence (P47871 26-477): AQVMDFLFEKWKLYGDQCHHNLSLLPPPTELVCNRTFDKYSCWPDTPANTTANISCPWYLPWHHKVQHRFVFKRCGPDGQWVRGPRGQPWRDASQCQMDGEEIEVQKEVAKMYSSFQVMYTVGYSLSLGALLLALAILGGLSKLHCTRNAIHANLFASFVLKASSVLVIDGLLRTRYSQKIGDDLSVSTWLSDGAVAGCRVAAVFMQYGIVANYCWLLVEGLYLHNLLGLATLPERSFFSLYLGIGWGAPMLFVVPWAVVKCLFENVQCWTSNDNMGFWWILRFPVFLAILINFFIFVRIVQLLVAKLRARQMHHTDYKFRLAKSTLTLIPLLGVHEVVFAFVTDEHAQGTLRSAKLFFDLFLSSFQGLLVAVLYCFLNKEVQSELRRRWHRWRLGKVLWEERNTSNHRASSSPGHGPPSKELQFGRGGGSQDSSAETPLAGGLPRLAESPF
A word on the Ki: it is a measure of affinity in units of concentration, obtained from inhibition or displacement. Molecule B1 yielded a Ki of 38.4 nM.
For B2, the Ki was found to be 77.5 nM.
In the case of B3, the inhibition constant Ki was 68.8 nM.
Molecule B4 had a Ki of 85 nM. The Ki values of the last two molecules are within 1.5-fold of each other.
In turn, B5 registered a Ki of 685 nM.

In the next assay the target is T1, human GLP-1 receptor (human), P43220.
T1 chain: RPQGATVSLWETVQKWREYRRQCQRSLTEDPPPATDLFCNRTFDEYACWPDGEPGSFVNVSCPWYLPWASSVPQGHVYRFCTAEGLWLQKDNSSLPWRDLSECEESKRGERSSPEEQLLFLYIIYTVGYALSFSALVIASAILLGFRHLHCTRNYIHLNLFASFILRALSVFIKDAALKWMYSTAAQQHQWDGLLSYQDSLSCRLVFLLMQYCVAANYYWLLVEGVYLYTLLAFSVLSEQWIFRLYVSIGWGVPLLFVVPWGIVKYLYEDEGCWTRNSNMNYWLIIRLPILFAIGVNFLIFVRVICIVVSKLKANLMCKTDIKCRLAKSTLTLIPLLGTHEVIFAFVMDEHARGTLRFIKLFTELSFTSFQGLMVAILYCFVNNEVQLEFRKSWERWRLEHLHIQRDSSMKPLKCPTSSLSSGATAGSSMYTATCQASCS
The assay is described as follows: SPA, displacement of [125I]-GLP-1 from hGLP-1R membranes, 0.1% bacitracin. For orientation: Displacement assays read how much labelled ligand stays bound in the presence of the test substance.
For the molecule B1, the Ki is 311 nM.
In the case of B2, the Ki turned out to be 570 nM.
B3: the Ki was 723 nM.
In the case of B4, the Ki is 832 nM.
For B5, the Ki was determined as 591 nM.

The next assay deals with T2, human glucose-dependent insulinotropic polypeptide (GIP) receptor (human), P48546.
T2 chain: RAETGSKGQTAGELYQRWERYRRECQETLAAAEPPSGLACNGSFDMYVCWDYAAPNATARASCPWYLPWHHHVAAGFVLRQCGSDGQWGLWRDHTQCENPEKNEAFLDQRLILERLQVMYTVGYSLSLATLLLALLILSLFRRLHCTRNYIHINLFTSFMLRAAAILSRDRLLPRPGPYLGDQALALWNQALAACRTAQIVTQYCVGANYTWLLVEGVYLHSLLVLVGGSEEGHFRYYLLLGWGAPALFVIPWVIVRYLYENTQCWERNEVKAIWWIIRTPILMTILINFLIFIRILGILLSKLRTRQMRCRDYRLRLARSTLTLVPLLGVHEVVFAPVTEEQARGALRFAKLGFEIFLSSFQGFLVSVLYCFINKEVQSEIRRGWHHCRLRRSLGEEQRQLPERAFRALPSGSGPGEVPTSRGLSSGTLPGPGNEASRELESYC
The assay is described as follows: SPA, displacement of [125I]-GIP from hGIPR membranes, 0.1% bacitracin.
B1 showed a Ki of 0.0195 nM.
B2 yielded a Ki of 0.0249 nM.
With B3, the Ki came to 0.129 nM. Compared with the last molecule, the Ki is about 5.2-fold higher.
B4 yielded a Ki of 0.0255 nM. This Ki is about 5.1-fold lower than that of the molecule before.
In turn, B5 showed a Ki of 0.0722 nM.
